Test results reported in US20160002322A1 (INDUSTRY ACADEMIC COOPERATION FOUNDATION HALLYM UNIVERSITY, published 2016).
No end group written: not given here.

Key:
[1] = molecular target: mouse TM4SF5 peptide (mTM4SF5) (mouse); test: SPR, Biacore T100, 25 C; biotinylated peptide captured on streptavidin-coated CM4 chip, antibody injected at 2-32 nM
Experimental: (§1) Affinity of anti-hTM4SF5 monoclonal antibody binding to human TM4SF5 peptide (hTM4SF5) and mouse TM4SF5 peptide (mTM4SF5) was measured using Biacore T100 (Biacore) at 25° C. Biotinylated peptides were captured on individual flow cell surface of a CM4 sensor chip coated with streptoavidin. Biotin served as a negative control. Anti-TM4SF5 monoclonal antibody at concentrations ranging from 2 to 32 nM was injected at a flow rate of […]. Data were evaluated using Biacore Bia evaluation software (version 3.0).

[2] = molecular target: T1, hTM4SF5 peptide (138-NRTLWDRCEAPPRV-151) (human, also: biotinylated for SPR capture (position not given here)); test: SPR, Biacore T100, 25 C; biotinylated peptide captured on streptavidin-coated CM4 chip, antibody injected at 2-32 nM; human TM4SF5 (not mouse); peptide on the chip per methods
T1 construct: also called human TM4SF5 peptide
T1 peptide: NRTLWDRCEAPPRV
Experimental: as §1

[3] = molecular target: mouse TM4SF5 peptide (mTM4SF5) (mouse); test: SPR (Biacore T100, 25 C), biotinylated mTM4SF5 peptide captured on a streptavidin-coated CM4 chip, antibody injected at 2 to 32 nM
Experimental: as §1

[4] = molecular target: T1, hTM4SF5 peptide (138-NRTLWDRCEAPPRV-151); test: SPR (Biacore T100, 25 C), biotinylated hTM4SF5 peptide captured on a streptavidin-coated CM4 chip, antibody injected at 2 to 32 nM
Experimental: as §1

- Kd [1]: ~2 nM
- Kd [2]: ~2 nM
- Kd [3]: 1.87 nM
- Kd [4]: 2.74 nM
B1: anti-TM4SF5 monoclonal antibody 2D4-18 (antibody, V domains shown)
VH: GDLVKPGGSLKLSCAASGFTFSSYGMSWVRQTPDKRLEWVATISSGGGYTYYPDSVKGRFTISRDNAKNTLYLQMRSLKSEDTAMYYCARHEGFTTYYFDYWGQGTTLTVSS
VL: LSLPVSLGDQASISCRSSQSILHSSGNTYLEWYLQKPGQSPKLLIYKVSNRFSGVPDRFSGSGSGTDFTLKISRVEAEDLGVYYCFQGSHVPFTFGSGTKLEIKR
notes: DyLight 750-labelled in the biodistribution experiment; also called TM4SF5-targeted mAb (2D4-18); anti-hTM4SF5 monoclonal antibody
